Article PMC11499381
No end group written: not given here.

Assays:
[1] = target: WT CTR (human)
[2] = target: N-V_(1–154)-CTR/RAMP1 (human) (UniProt O60894)
[3] = target: WT CTR/RAMP1 (AMY1 receptor) (human) (UniProt O60894)
[4] = target: CTR-C-V_(1–154)/RAMP1 (human) (UniProt O60894)
[5] = target: CTR/N-V_(155–238)-RAMP1 (human) (UniProt O60894)
[6] = target: N-V_(1–154)-CTR/N-V_(155–238)-RAMP1 (human) (UniProt O60894)
[7] = target: CTR-C-V_(1–154)/RAMP1-C-V_(155–238) (human) (UniProt O60894)
[8] = target: CTR/RAMP1-C-V_(155–238) (human) (UniProt O60894)
[9] = target: N-V_(1–154)-CTR (human)
[10] = target: CTR-C-V_(1–154) (human)

WT CTR (human), sequence (P30988 25-474): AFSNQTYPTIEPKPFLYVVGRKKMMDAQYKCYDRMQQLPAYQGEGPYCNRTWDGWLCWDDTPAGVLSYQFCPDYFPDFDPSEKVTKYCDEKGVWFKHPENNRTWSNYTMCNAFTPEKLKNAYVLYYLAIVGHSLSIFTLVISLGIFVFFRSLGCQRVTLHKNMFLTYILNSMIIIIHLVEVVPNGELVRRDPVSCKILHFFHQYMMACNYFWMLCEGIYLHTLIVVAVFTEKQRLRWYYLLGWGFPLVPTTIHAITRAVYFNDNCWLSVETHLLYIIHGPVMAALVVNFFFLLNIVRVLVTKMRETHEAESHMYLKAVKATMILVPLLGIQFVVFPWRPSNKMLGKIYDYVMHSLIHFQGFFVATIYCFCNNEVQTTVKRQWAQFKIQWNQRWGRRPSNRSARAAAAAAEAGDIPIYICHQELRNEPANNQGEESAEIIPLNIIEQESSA

Row | Molecule | pEC50 of h-αCGRP-stimulated cAMP production, Cos7 cells, 15 min, CTR without RAMP1 [1] [pEC50] | Emax of h-αCGRP-stimulated cAMP production, Cos7 cells, percent of the matched WT curve [2] | pEC50 of h-αCGRP-stimulated cAMP production, Cos7 cells, 15 min [2] [pEC50] | pEC50 of h-αCGRP-stimulated cAMP production, Cos7 cells, 15 min (WT control of the N-terminal series) [3] [pEC50] | Emax of h-αCGRP-stimulated cAMP production, Cos7 cells, percent of the matched WT curve [4] | pEC50 of h-αCGRP-stimulated cAMP production, Cos7 cells, 15 min [4] [pEC50] | Emax of h-αCGRP-stimulated cAMP production, Cos7 cells, percent of the matched WT curve [5] | pEC50 of h-αCGRP-stimulated cAMP production, Cos7 cells, 15 min [5] [pEC50] | Emax of h-αCGRP-stimulated cAMP production, Cos7 cells, percent of the matched WT curve [6] | pEC50 of h-αCGRP-stimulated cAMP production, Cos7 cells, 15 min [6] [pEC50] | Emax of h-αCGRP-stimulated cAMP production, Cos7 cells, percent of the matched WT curve [7] | pEC50 of h-αCGRP-stimulated cAMP production, Cos7 cells, 15 min [7] [pEC50] | Emax of h-αCGRP-stimulated cAMP production, Cos7 cells, percent of the matched WT curve [8] | pEC50 of h-αCGRP-stimulated cAMP production, Cos7 cells, 15 min [8] [pEC50] | fold loss of calcitonin potency (cAMP production) against WT CTR, Cos7 cells [9] [fold] | fold loss of calcitonin potency (cAMP production) against WT CTR, Cos7 cells [10] [fold]
1 | Human αCGRP (from UniProt P06881 83-119) (peptide) | 6.63 | 74 % of WT | 8.92 | 9.1 | 81.2 % of WT | 8.41 | 74.9 % of WT | 8.16 | 77.3 % of WT | 8.83 | 71.5 % of WT | 7.52 | 83.5 % of WT | 8.62 |  | 
2 | CGNLSTCMLGTYTQDFNKFHTFPQTAIGVGAP (ends and bridges not checked; cysteine pairing not given here) [Human calcitonin] |  |  |  |  |  |  |  |  |  |  |  |  |  |  | 10 | 3
